B1: ARC33164 (mixed)
mixed: GGAAUAUACUUGGCUTGUUAGGUGCGUAUAUA
modifications: 2'-OMe A/G/U, dT16, 2'-deoxy C, 3' idT
B2: ARC33176 (mixed)
RNA: GGAAUAUACUUGGCUCGUUAGGUGCGUUUAUA
modifications: 2'-OMe A/G/U, 2'-deoxy C, 3' idT
B3: ARC34869 (mixed)
RNA: GGAAUAGACUUGGCUCGUUAGGUGCGUAUAUA
modifications: 2'-OMe A/G/U, 2'-deoxy C, 3' idT
B4: ARC33163 (mixed)
RNA: GGAAUAUACUUGGCCCGUUAGGUGCGUAUAUA
modifications: 2'-OMe A/G/U and mC15, other C 2'-deoxy, 3' idT
B5: ARC34868 (mixed)
RNA: GGAAUAAACUUGGCUCGUUAGGUGCGUAUAUA
modifications: 2'-OMe A/G/U, 2'-deoxy C, 3' idT
B6: ARC33165 (mixed)
RNA: GGAAUAUACUUGGCUCUUUAGGUGCGUAUAUA
modifications: 2'-OMe A/G/U, 2'-deoxy C, 3' idT
B7: ARC33174 (mixed)
RNA: GGAAUAUACUUGGCUCGUUAGGUGCUUAUAUA
modifications: 2'-OMe A/G/U, 2'-deoxy C, 3' idT
B8: ARC33161 (mixed)
RNA: GGAAUAUACUUGUCUCGUUAGGUGCGUAUAUA
modifications: 2'-OMe A/G/U, 2'-deoxy C, 3' idT
B9: ARC33160 (mixed)
RNA: GGAAUAUACUUUGCUCGUUAGGUGCGUAUAUA
modifications: 2'-OMe A/G/U, 2'-deoxy C, 3' idT
B10: ARC33172 (mixed)
RNA: GGAAUAUACUUGGCUCGUUAGGUUCGUAUAUA
modifications: 2'-OMe A/G/U, 2'-deoxy C, 3' idT
B11: ARC33175 (mixed)
RNA: GGAAUAUACUUGGCUCGUUAGGUGCGCAUAUA
modifications: 2'-OMe A/G/U and mC27, other C 2'-deoxy, 3' idT
B12: ARC33159 (mixed)
RNA: GGAAUAUACUCGGCUCGUUAGGUGCGUAUAUA
modifications: 2'-OMe A/G/U and mC11, other C 2'-deoxy, 3' idT
B13: ARC33157 (mixed)
mixed: GGAAUAUATUUGGCUCGUUAGGUGCGUAUAUA
modifications: 2'-OMe A/G/U, dT9, 2'-deoxy C, 3' idT
B14: ARC33170 (mixed)
RNA: GGAAUAUACUUGGCUCGUUAGUUGCGUAUAUA
modifications: 2'-OMe A/G/U, 2'-deoxy C, 3' idT
B15: ARC33168 (mixed)
RNA: GGAAUAUACUUGGCUCGUUUGGUGCGUAUAUA
modifications: 2'-OMe A/G/U, 2'-deoxy C, 3' idT
B16: ARC33173 (mixed)
mixed: GGAAUAUACUUGGCUCGUUAGGUGTGUAUAUA
modifications: 2'-OMe A/G/U, dT25, 2'-deoxy C, 3' idT
B17: ARC33171 (mixed)
RNA: GGAAUAUACUUGGCUCGUUAGGCGCGUAUAUA
modifications: 2'-OMe A/G/U and mC23, other C 2'-deoxy, 3' idT
B18: ARC33167 (mixed)
RNA: GGAAUAUACUUGGCUCGUCAGGUGCGUAUAUA
modifications: 2'-OMe A/G/U and mC19, other C 2'-deoxy, 3' idT
B19: ARC33146 (mixed)
RNA: GGAAUAUACUUCUCGUUAGGUGCGUAUAUA
modifications: 2'-OMe A/G/U, 2'-deoxy C, 3' idT
B20: ARC33145 (mixed)
RNA: GGAAUAUACGGCUCGUUAGGUGCGUAUAUA
modifications: 2'-OMe A/G/U, 2'-deoxy C, 3' idT
B21: ARC33148 (mixed)
RNA: GGAAUAUACUUGGCUCGUUAUGCGUAUAUA
modifications: 2'-OMe A/G/U, 2'-deoxy C, 3' idT
B22: ARC33140 (mixed)
RNA: GGAAUAUACUUGGCUCGUUAGGUGCGUUAUA
modifications: 2'-OMe A/G/U, 2'-deoxy C, 3' idT
B23: ARC33147 (mixed)
RNA: GGAAUAUACUUGGCUCGAGGUGCGUAUAUA
modifications: 2'-OMe A/G/U, 2'-deoxy C, 3' idT
B24: ARC33136 (mixed)
RNA: GGAAUAUACUUGGCUCGUUAGGUCGUAUAUA
modifications: 2'-OMe A/G/U, 2'-deoxy C, 3' idT
B25: ARC33138 (mixed)
RNA: GGAAUAUACUUGGCUCGUUAGGUGCUAUAUA
modifications: 2'-OMe A/G/U, 2'-deoxy C, 3' idT
B26: ARC33139 (mixed)
RNA: GGAAUAUACUUGGCUCGUUAGGUGCGAUAUA
modifications: 2'-OMe A/G/U, 2'-deoxy C, 3' idT
B27: ARC33137 (mixed)
RNA: GGAAUAUACUUGGCUCGUUAGGUGGUAUAUA
modifications: 2'-OMe A/G/U, 2'-deoxy C, 3' idT
B28: ARC33895 (mixed)
RNA: AUACUUGGCUCGUUAGGUGCGUAUA
modifications: 2'-OMe A/G/U, 2'-deoxy C, 3' idT
B29: ARC33890 (mixed)
RNA: AUAUACUUGGCUCGUUAGGUGCGUAUA
modifications: 2'-OMe A/G/U, 2'-deoxy C, 3' idT
B30: ARC33891 (mixed)
RNA: UAUACUUGGCUCGUUAGGUGCGUAUA
modifications: 2'-OMe A/G/U, 2'-deoxy C, 3' idT
B31: ARC32303 (mixed)
RNA: AUAUACUUGGCUCGUUAGGUGCGUAUAUA
modifications: 2'-OMe A/G/U, 2'-deoxy C, 3' idT
B32: ARC33144 (mixed)
RNA: GGUAUACUUGGCUCGUUAGGUGCGUAUAUA
modifications: 2'-OMe A/G/U, 2'-deoxy C, 3' idT
B33: ARC33900 (mixed)
RNA: UUACUUGGCUCGUUAGGUGCGUAUA
modifications: 2'-OMe A/G/U, 2'-deoxy C, 3' idT
B34: ARC32306 (mixed)
RNA: AAUAUACUUGGCUCGUUAGGUGCGUAUA
modifications: 2'-OMe A/G/U, 2'-deoxy C, 3' idT
B35: ARC32301 (mixed)
RNA: GAAUAUACUUGGCUCGUUAGGUGCGUAUAUA
modifications: 2'-OMe A/G/U, 2'-deoxy C, 3' idT
B36: ARC33120 (mixed)
RNA: GGAUAUACUUGGCUCGUUAGGUGCGUAUAUA
modifications: 2'-OMe A/G/U, 2'-deoxy C, 3' idT
B37: ARC33121 (mixed)
RNA: GGAAAUACUUGGCUCGUUAGGUGCGUAUAUA
modifications: 2'-OMe A/G/U, 2'-deoxy C, 3' idT
B38: ARC18555 (mixed)
RNA: GGAAUAUACUUGGCUCGUUAGGUGCGUAUAU
modifications: 2'-OMe A/G/U, 2'-deoxy C, 3' idT
B39: ARC33143 (mixed)
RNA: GGAAUAUACUUGGCUCGUUAGGUGCGUAUAA
modifications: 2'-OMe A/G/U, 2'-deoxy C, 3' idT
B40: ARC33142 (mixed)
RNA: GGAAUAUACUUGGCUCGUUAGGUGCGUAUUA
modifications: 2'-OMe A/G/U, 2'-deoxy C, 3' idT
B41: ARC32305 (mixed)
RNA: GAAUAUACUUGGCUCGUUAGGUGCGUAUAU
modifications: 2'-OMe A/G/U, 2'-deoxy C, 3' idT
B42: ARC33907 (mixed)
RNA: GGAAUACUUGGCUCGUUAGGUGCGUAUAUA
modifications: 2'-OMe A/G/U, 2'-deoxy C, 3' idT
B43: ARC32302 (mixed)
RNA: AAUAUACUUGGCUCGUUAGGUGCGUAUAUA
modifications: 2'-OMe A/G/U, 2'-deoxy C, 3' idT
B44: ARC32307 (mixed)
RNA: AUAUACUUGGCUCGUUAGGUGCGUAU
modifications: 2'-OMe A/G/U, 2'-deoxy C, 3' idT

These binders were tested against T1, TFPI (tissue factor pathway inhibitor, full-length) (Homo sapiens, UniProt P10646 SEQ:1-276) (assay: competition; fails binding-competition criterion). Conditions: tags: American Diagnostica 4500PC/4900PC, E. coli expressed.
T1 sequence (P10646 29-304): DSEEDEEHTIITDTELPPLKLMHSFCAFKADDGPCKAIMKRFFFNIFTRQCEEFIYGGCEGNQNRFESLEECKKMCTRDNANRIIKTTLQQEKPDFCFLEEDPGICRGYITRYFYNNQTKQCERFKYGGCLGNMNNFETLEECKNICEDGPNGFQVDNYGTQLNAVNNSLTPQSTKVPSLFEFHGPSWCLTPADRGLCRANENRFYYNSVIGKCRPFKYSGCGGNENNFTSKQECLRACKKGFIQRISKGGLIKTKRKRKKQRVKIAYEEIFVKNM
Protocol: (§1) The substituted ARC17480 molecules were assayed for binding and function. The assays used for this evaluation were the calibrated automated thrombogram (CAT) assay, a dot-blot binding-competition assay and a FXa activity assay. The results of these assays are summarized in Table 40 and depicted in FIG. 147. A mutation was considered tolerated for activity if it met the criteria of at least two of the three assays that were carried out. Mutations that are tolerated (“yes”) and not tolerated (“no”) are identified in Table 40. The experimental details and the criteria used for each assay are described in the following paragraphs. The molecules described in this example were first tested in the CAT assay and the dot-blot binding-competition assay. In most cases, molecules were only tested in the FXa assay if there was a discrepancy between the results in the CAT assay and the dot-blot binding-competition assay.
(§2) Each molecule was evaluated for binding to tissue factor pathway inhibitor (TFPI) in a binding-competition assay. For these experiments, 10 nM human TFPI (American Diagnostica, Stamford, Conn., catalog #4900PC) was incubated with trace amounts of radiolabeled ARC17480 and 5000 nM, 1666.67 nM, 555.56 nM, 185.19 nM, 61.73 nM, 20.58 nM, 6.86 nM, 2.29 nM, 0.76 nM or 0.25 nM of unlabeled competitor aptamer. ARC17480 was included as a competitor in every experiment as a control. For each molecule, the percentage of radiolabeled ARC17480 bound at each competitor aptamer concentration was used for analysis. The percentage of radiolabeled ARC17480 bound was plotted as a function of aptamer concentration and fit to the equation y=(max/(1+x/IC₅₀))+int, where y=the percentage of radiolabeled ARC17480 bound, x=the concentration of aptamer, max=the maximum radiolabeled ARC17480 bound, and int=the y-intercept, to generate an IC₅₀ value for binding-competition. The IC₅₀ of each aptamer was compared to the IC₅₀ of ARC17480 that was evaluated in the same experiment. A mutation was considered tolerated in the binding-competition assay if the IC₅₀ of that molecule was not more than 5-fold greater than that of ARC17480 evaluated in the same experiment. Tolerated mutations are indicated in Table 40 as meeting the assay criteria (“yes”) or not meeting the assay criteria (“no”).

Binder | binding signal
B1 | > 5 fold IC50 of ARC17480
B2 | > 5 fold IC50 of ARC17480
B3 | > 5 fold IC50 of ARC17480
B4 | > 5 fold IC50 of ARC17480
B5 | > 5 fold IC50 of ARC17480
B6 | > 5 fold IC50 of ARC17480
B7 | > 5 fold IC50 of ARC17480
B8 | > 5 fold IC50 of ARC17480
B9 | > 5 fold IC50 of ARC17480
B10 | > 5 fold IC50 of ARC17480
B11 | > 5 fold IC50 of ARC17480
B12 | > 5 fold IC50 of ARC17480
B13 | > 5 fold IC50 of ARC17480
B14 | > 5 fold IC50 of ARC17480
B15 | > 5 fold IC50 of ARC17480
B16 | > 5 fold IC50 of ARC17480
B17 | > 5 fold IC50 of ARC17480

These binders were tested against T1, TFPI (tissue factor pathway inhibitor, …) (assay: competition; meets binding-competition criterion). Conditions: tags: American Diagnostica 4500PC/4900PC, E. coli expressed.
Protocol: as §1, §2

Binder | binding signal
B18 | ≤ 5 fold IC50 of ARC17480

Molecular target: T1, TFPI (tissue factor pathway inhibitor, …)
Assay: competition; fails binding-competition criterion
Conditions: tags: American Diagnostica 4500PC/4900PC, E. coli expressed
Remark: another data set of the same source
Protocol: (§3) Each molecule was evaluated for binding to tissue factor pathway inhibitor (TFPI) in a binding-competition assay. For these experiments, 10 nM human TFPI (American Diagnostica, Stamford, Conn., catalog #4500PC) was incubated with trace amounts of radiolabeled ARC17480 and 5000 nM, 1666.67 nM, 555.56 nM, 185.19 nM, 61.73 nM, 20.58 nM, 6.86 nM, 2.29 nM, 0.76 nM or 0.25 nM of unlabeled competitor aptamer. ARC17480 was included as a competitor in every experiment as a control. For each molecule, the percentage of radiolabeled ARC17480 bound at each competitor aptamer concentration was used for analysis. The percentage of radiolabeled ARC17480 bound was plotted as a function of aptamer concentration and fit to the equation y=(max/(1+x/IC₅₀))+int, where y=the percentage of radiolabeled ARC17480 bound, x=the concentration of aptamer, max=the maximum radiolabeled ARC17480 bound, and int=the y-intercept, to generate an IC₅₀ value for binding-competition. The IC₅₀ of each aptamer was compared to the IC₅₀ of ARC17480 that was evaluated in the same experiment. A substitution was considered tolerated in the binding-competition assay if the IC₅₀ of that molecule was not more than 5-fold greater than that of ARC17480 evaluated in the same experiment. Tolerated substitutions are indicated in Table 38 as meeting the assay criteria (“yes”) or not meeting the assay criteria (“no”).

Binder | binding signal
B19 | > 5 fold IC50 of ARC17480
B20 | > 5 fold IC50 of ARC17480
B21 | > 5 fold IC50 of ARC17480
B22 | > 5 fold IC50 of ARC17480
B23 | > 5 fold IC50 of ARC17480
B24 | > 5 fold IC50 of ARC17480
B25 | > 5 fold IC50 of ARC17480
B26 | > 5 fold IC50 of ARC17480
B27 | > 5 fold IC50 of ARC17480

Molecular target: T1, TFPI (tissue factor pathway inhibitor, …)
Assay: competition; meets binding-competition criterion
Conditions: tags: American Diagnostica 4500PC/4900PC, E. coli expressed
Remark: another data set of the same source
Protocol: as §3

Binder | binding signal
B28 | ≤ 5 fold IC50 of ARC17480
B29 | ≤ 5 fold IC50 of ARC17480
B30 | ≤ 5 fold IC50 of ARC17480
B31 | ≤ 5 fold IC50 of ARC17480
B32 | ≤ 5 fold IC50 of ARC17480
B33 | ≤ 5 fold IC50 of ARC17480
B34 | ≤ 5 fold IC50 of ARC17480
B35 | ≤ 5 fold IC50 of ARC17480
B36 | ≤ 5 fold IC50 of ARC17480
B37 | ≤ 5 fold IC50 of ARC17480
B38 | ≤ 5 fold IC50 of ARC17480
B39 | ≤ 5 fold IC50 of ARC17480
B40 | ≤ 5 fold IC50 of ARC17480
B41 | ≤ 5 fold IC50 of ARC17480
B42 | ≤ 5 fold IC50 of ARC17480
B43 | ≤ 5 fold IC50 of ARC17480
B44 | ≤ 5 fold IC50 of ARC17480

Reference: patent US20110281938, “APTAMERS TO TISSUE FACTOR PATHWAY INHIBITOR AND THEIR USE AS BLEEDING DISORDER THERAPEUTICS” (Baxter Healthcare S.A., published 2011)
